Data: article PMC9482650, “Quantitative fragmentomics allow affinity mapping of interactomes” (Nature Communications, 2022)

What was measured:
Assay in all cases: holdup assay
Design in all cases: key: below the threshold = too weak to quantify, mostly under pKd 3.1 to 4
MPDZ_12, O75970 = target: T1, MPDZ_12, O75970
T1 sequence (O75970 1857-1958, limits assumed, looked up): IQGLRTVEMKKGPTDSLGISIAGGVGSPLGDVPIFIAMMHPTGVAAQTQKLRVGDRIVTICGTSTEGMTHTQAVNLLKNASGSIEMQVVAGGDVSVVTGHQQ

GRASP, Q7Z6J2 = target: GRASP, Q7Z6J2
Sequence of GRASP, Q7Z6J2 (Q7Z6J2 96-193): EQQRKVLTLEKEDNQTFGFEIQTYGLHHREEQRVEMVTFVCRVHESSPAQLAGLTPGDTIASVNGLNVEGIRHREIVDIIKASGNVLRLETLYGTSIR

LNX1_2, Q8TBB1 = target: LNX1_2, Q8TBB1
Sequence of LNX1_2, Q8TBB1 (Q8TBB1 371-470): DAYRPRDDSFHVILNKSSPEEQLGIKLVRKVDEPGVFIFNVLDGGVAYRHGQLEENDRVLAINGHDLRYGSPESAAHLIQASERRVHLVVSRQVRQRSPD

Inadl_9, Q8NI35 = target: Inadl_9, Q8NI35
Sequence of Inadl_9, Q8NI35 (Q8NI35 1530-1615): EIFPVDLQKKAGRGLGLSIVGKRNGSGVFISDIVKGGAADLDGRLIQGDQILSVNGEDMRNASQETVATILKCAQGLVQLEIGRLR

IL16_3, Q14005 = target: IL16_3, Q14005
Sequence of IL16_3, Q14005 (Q14005 1107-1207): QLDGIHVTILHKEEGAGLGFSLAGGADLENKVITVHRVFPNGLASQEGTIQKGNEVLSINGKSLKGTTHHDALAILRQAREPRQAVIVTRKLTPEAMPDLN

IL16_4, Q14005 = target: IL16_4, Q14005
Sequence of IL16_4, Q14005 (Q14005 1229-1329): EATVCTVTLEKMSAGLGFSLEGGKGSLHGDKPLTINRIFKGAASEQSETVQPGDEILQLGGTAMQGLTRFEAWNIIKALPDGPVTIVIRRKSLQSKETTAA

GRID2IP_2, A4D2P6 = target: GRID2IP_2, A4D2P6
Sequence of GRID2IP_2, A4D2P6 (A4D2P6 272-370): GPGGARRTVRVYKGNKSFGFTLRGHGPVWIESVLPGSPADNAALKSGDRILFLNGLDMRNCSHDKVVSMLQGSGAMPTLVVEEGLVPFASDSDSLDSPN

GRIP2_6, Q9C0E4 = target: GRIP2_6, Q9C0E4
Sequence of GRIP2_6, Q9C0E4 (Q9C0E4 648-740): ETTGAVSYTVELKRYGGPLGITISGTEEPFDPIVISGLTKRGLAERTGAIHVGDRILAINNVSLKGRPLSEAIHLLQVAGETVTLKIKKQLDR

HTRA3, P83110 = target: T2, HTRA3, P83110
T2 sequence (P83110 354-453, limits assumed, looked up): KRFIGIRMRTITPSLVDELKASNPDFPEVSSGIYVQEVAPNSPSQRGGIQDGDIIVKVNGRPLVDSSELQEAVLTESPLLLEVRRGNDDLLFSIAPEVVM

MAGI2_2, Q86UL8 = target: MAGI2_2, Q86UL8
Sequence of MAGI2_2, Q86UL8 (Q86UL8 410-522): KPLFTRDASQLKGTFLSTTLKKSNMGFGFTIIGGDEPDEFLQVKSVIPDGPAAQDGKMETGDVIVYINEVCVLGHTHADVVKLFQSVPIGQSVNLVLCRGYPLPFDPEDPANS

GRIP2_4, Q9C0E4 = target: GRIP2_4, Q9C0E4
Sequence of GRIP2_4, Q9C0E4 (Q9C0E4 446-548): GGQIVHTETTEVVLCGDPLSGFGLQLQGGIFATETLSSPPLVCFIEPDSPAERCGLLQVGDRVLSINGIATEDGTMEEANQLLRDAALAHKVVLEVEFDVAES

NOS1, P29475 = target: NOS1, P29475
Sequence of NOS1, P29475 (P29475 9-101): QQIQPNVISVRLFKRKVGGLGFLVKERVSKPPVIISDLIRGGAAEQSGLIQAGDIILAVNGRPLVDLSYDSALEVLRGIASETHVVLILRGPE

TIAM2, Q8IVF5 = target: T3, TIAM2, Q8IVF5
T3 sequence (Q8IVF5 885-986, limits assumed, looked up): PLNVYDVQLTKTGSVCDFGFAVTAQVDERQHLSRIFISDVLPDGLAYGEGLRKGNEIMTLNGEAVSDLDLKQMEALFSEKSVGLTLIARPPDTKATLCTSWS

DLG5_1, Q8TDM6 = target: DLG5_1, Q8TDM6
Sequence of DLG5_1, Q8TDM6 (Q8TDM6 617-713): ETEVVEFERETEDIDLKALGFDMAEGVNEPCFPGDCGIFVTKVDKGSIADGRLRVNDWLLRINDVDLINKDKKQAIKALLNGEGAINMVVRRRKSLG

PDZRN3_1, Q9UPQ7 = target: T4, PDZRN3_1, Q9UPQ7
T4 sequence (Q9UPQ7 244-349, limits assumed, looked up): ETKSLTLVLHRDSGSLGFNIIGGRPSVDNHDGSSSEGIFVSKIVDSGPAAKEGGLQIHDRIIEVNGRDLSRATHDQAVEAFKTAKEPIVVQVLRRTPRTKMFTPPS

MPP2, Q14168 = target: T5, MPP2, Q14168
T5 sequence (Q14168 180-250, limits assumed, looked up): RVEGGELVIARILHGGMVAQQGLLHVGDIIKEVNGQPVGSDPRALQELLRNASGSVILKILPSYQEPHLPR

FRMPD3, Q5JV73 = target: FRMPD3, Q5JV73
Sequence of FRMPD3, Q5JV73 (Q5JV73 12-100): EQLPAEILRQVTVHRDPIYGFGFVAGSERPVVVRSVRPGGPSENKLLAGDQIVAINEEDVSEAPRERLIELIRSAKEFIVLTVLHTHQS

DFNB31_3, Q9P202 = target: T6, DFNB31_3, Q9P202
T6 sequence (Q9P202 811-907, limits assumed, looked up): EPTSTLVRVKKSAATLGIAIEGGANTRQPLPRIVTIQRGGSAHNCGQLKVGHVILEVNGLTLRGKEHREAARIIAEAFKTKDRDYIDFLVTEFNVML

TJP1_3, Q07157 = target: TJP1_3, Q07157
Sequence of TJP1_3, Q07157 (Q07157 416-512): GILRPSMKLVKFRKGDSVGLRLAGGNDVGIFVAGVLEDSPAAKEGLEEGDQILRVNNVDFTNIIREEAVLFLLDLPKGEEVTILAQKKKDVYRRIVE

RADIL, Q96JH8 = target: T7, RADIL, Q96JH8
T7 sequence (Q96JH8 971-1071, limits assumed, looked up): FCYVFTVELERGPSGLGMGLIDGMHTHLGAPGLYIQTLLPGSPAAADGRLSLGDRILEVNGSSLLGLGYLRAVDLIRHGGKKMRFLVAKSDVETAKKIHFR

GORASP2, Q9H8Y8 = target: GORASP2, Q9H8Y8
PICK1, Q9NRD5 = target: PICK1, Q9NRD5
Sequence of PICK1, Q9NRD5 (Q9NRD5 17-115): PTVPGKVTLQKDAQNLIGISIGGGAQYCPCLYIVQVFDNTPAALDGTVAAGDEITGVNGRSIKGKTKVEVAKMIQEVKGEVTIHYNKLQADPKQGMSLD

DLG3_2, Q92796 = target: T8, DLG3_2, Q92796
T8 sequence (Q92796 221-321, limits assumed, looked up): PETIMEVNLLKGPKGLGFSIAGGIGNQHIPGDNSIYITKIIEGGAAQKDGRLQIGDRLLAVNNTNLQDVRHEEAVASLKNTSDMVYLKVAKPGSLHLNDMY

APBA3_1, O96018 = target: T9, APBA3_1, O96018
T9 sequence (O96018 389-490, limits assumed, looked up): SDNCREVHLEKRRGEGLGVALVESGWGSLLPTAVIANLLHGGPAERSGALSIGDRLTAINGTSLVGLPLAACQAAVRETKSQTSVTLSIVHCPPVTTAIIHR

DFNB31_1, Q9P202 = target: T10, DFNB31_1, Q9P202
T10 sequence (Q9P202 135-233, limits assumed, looked up): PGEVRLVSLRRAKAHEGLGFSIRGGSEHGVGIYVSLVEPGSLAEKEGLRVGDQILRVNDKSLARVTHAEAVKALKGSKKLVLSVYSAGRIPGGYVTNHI

GRIP1_4, Q9Y3R0 = target: T11, GRIP1_4, Q9Y3R0
T11 sequence (Q9Y3R0 467-571, limits assumed, looked up): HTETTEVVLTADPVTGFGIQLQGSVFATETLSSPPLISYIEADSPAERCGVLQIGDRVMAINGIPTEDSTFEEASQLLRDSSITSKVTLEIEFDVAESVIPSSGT

[1] = plain residues with an end cap or a label only (N-terminal biotin on a linker: ttds)
[2] = plain residues with an end cap or a label only (N-terminal biotin on a linker: ahx)

SPLHSLETSL [ATP2B1, P20020]
pKd (MPDZ_12, O75970; [1]): below the threshold | pKd (GRASP, Q7Z6J2; [1]): 4.22 | pKd (LNX1_2, Q8TBB1; [1]): below the threshold | pKd (Inadl_9, Q8NI35; [1]): below the threshold | pKd (IL16_3, Q14005; [1]): below the threshold | pKd (IL16_4, Q14005; [1]): below the threshold | pKd (GRID2IP_2, A4D2P6; [1]): 4.17 | pKd (GRIP2_6, Q9C0E4; [1]): below the threshold | pKd (HTRA3, P83110; [1]): below the threshold | pKd (MAGI2_2, Q86UL8; [1]): 3.86 | pKd (GRIP2_4, Q9C0E4; [1]): below the threshold | pKd (NOS1, P29475; [1]): 3.77 | pKd (TIAM2, Q8IVF5; [1]): below the threshold | pKd (DLG5_1, Q8TDM6; [1]): below the threshold | pKd (PDZRN3_1, Q9UPQ7; [1]): 5.09 | pKd (MPP2, Q14168; [1]): below the threshold | pKd (FRMPD3, Q5JV73; [1]): 3.59 | pKd (DFNB31_3, Q9P202; [1]): below the threshold | pKd (TJP1_3, Q07157; [1]): below the threshold | pKd (RADIL, Q96JH8; [1]): below the threshold | pKd (GORASP2, Q9H8Y8; [1]): below the threshold | pKd (PICK1, Q9NRD5; [1]): below the threshold | pKd (DLG3_2, Q92796; [1]): 4.35 | pKd (APBA3_1, O96018; [1]): 3.47 | pKd (DFNB31_1, Q9P202; [1]): 4.22 | pKd (GRIP1_4, Q9Y3R0; [1]): below the threshold

RNCSTNDSLL [ADRB2, P07550]
pKd (MPDZ_12, O75970; [2]): below the threshold | pKd (GRASP, Q7Z6J2; [2]): below the threshold | pKd (LNX1_2, Q8TBB1; [2]): below the threshold | pKd (Inadl_9, Q8NI35; [2]): below the threshold | pKd (IL16_3, Q14005; [2]): below the threshold | pKd (IL16_4, Q14005; [2]): below the threshold | pKd (GRID2IP_2, A4D2P6; [2]): below the threshold | pKd (GRIP2_6, Q9C0E4; [2]): below the threshold | pKd (HTRA3, P83110; [2]): below the threshold | pKd (MAGI2_2, Q86UL8; [2]): below the threshold | pKd (GRIP2_4, Q9C0E4; [2]): below the threshold | pKd (NOS1, P29475; [2]): below the threshold | pKd (TIAM2, Q8IVF5; [2]): below the threshold | pKd (DLG5_1, Q8TDM6; [2]): below the threshold | pKd (PDZRN3_1, Q9UPQ7; [2]): 3.54 | pKd (MPP2, Q14168; [2]): below the threshold | pKd (FRMPD3, Q5JV73; [2]): below the threshold | pKd (DFNB31_3, Q9P202; [2]): below the threshold | pKd (TJP1_3, Q07157; [2]): below the threshold | pKd (RADIL, Q96JH8; [2]): below the threshold | pKd (GORASP2, Q9H8Y8; [2]): 3.52 | pKd (PICK1, Q9NRD5; [2]): below the threshold | pKd (DLG3_2, Q92796; [2]): below the threshold | pKd (APBA3_1, O96018; [2]): below the threshold | pKd (DFNB31_1, Q9P202; [2]): below the threshold | pKd (GRIP1_4, Q9Y3R0; [2]): below the threshold

DPLTPSRSQL [DGKK, Q5KSL6]
pKd (MPDZ_12, O75970; [1]): below the threshold | pKd (GRASP, Q7Z6J2; [1]): 4.17 | pKd (LNX1_2, Q8TBB1; [1]): below the threshold | pKd (Inadl_9, Q8NI35; [1]): below the threshold | pKd (IL16_3, Q14005; [1]): below the threshold | pKd (IL16_4, Q14005; [1]): below the threshold | pKd (GRID2IP_2, A4D2P6; [1]): 4.1 | pKd (GRIP2_6, Q9C0E4; [1]): below the threshold | pKd (HTRA3, P83110; [1]): below the threshold | pKd (MAGI2_2, Q86UL8; [1]): below the threshold | pKd (GRIP2_4, Q9C0E4; [1]): below the threshold | pKd (NOS1, P29475; [1]): below the threshold | pKd (TIAM2, Q8IVF5; [1]): below the threshold | pKd (DLG5_1, Q8TDM6; [1]): below the threshold | pKd (PDZRN3_1, Q9UPQ7; [1]): below the threshold | pKd (MPP2, Q14168; [1]): below the threshold | pKd (FRMPD3, Q5JV73; [1]): below the threshold | pKd (DFNB31_3, Q9P202; [1]): below the threshold | pKd (TJP1_3, Q07157; [1]): below the threshold | pKd (RADIL, Q96JH8; [1]): below the threshold | pKd (GORASP2, Q9H8Y8; [1]): 4.21 | pKd (PICK1, Q9NRD5; [1]): below the threshold | pKd (DLG3_2, Q92796; [1]): below the threshold | pKd (APBA3_1, O96018; [1]): below the threshold | pKd (DFNB31_1, Q9P202; [1]): below the threshold | pKd (GRIP1_4, Q9Y3R0; [1]): below the threshold

SSSNSEDTEM [NHERF3, Q5T2W1]
pKd (MPDZ_12, O75970; [2]): below the threshold | pKd (GRASP, Q7Z6J2; [2]): below the threshold | pKd (LNX1_2, Q8TBB1; [2]): below the threshold | pKd (Inadl_9, Q8NI35; [2]): below the threshold | pKd (IL16_3, Q14005; [2]): below the threshold | pKd (IL16_4, Q14005; [2]): below the threshold | pKd (GRID2IP_2, A4D2P6; [2]): below the threshold | pKd (GRIP2_6, Q9C0E4; [2]): below the threshold | pKd (HTRA3, P83110; [2]): below the threshold | pKd (MAGI2_2, Q86UL8; [2]): below the threshold | pKd (GRIP2_4, Q9C0E4; [2]): below the threshold | pKd (NOS1, P29475; [2]): below the threshold | pKd (TIAM2, Q8IVF5; [2]): below the threshold | pKd (DLG5_1, Q8TDM6; [2]): below the threshold | pKd (PDZRN3_1, Q9UPQ7; [2]): below the threshold | pKd (MPP2, Q14168; [2]): below the threshold | pKd (FRMPD3, Q5JV73; [2]): below the threshold | pKd (DFNB31_3, Q9P202; [2]): below the threshold | pKd (TJP1_3, Q07157; [2]): below the threshold | pKd (RADIL, Q96JH8; [2]): below the threshold | pKd (GORASP2, Q9H8Y8; [2]): below the threshold | pKd (PICK1, Q9NRD5; [2]): below the threshold | pKd (DLG3_2, Q92796; [2]): below the threshold | pKd (APBA3_1, O96018; [2]): below the threshold | pKd (DFNB31_1, Q9P202; [2]): below the threshold | pKd (GRIP1_4, Q9Y3R0; [2]): below the threshold
